As a reminder, the Km is the substrate concentration at which the rate is half of its maximum.

Substrate in the data set: CC(=O)SCCNC(=O)CCNC(=O)[C@H](O)C(C)(C)COP(=O)(O)OP(=O)(O)OC[C@H]1O[C@@H](n2cnc3c(N)ncnc32)[C@H](O)[C@@H]1OP(=O)(O)O
As to the kind of experiment: radiochemical TLC acetyltransferase assay, one-site Hill fit. Type of data set: biochemical, Escherichia coli. The conditions noted are these: 500 μM glucosamine-1-phosphate, 20 mM MgCl2, 37 °C, labelled compound.

B1: GlmU (Escherichia coli K-12) (protein)
chain: MLNNAMSVVILAAGKGTRMYSDLPKVLHTLAGKAMVQHVIDAANELGAAHVHLVYGHGGDLLKQALKDDNLNWVLQAEQLGTGHAMQQAAPFFADDEDILMLYGDVPLISVETLQRLRDAKPQGGIGLLTVKLDDPTGYGRITRENGKVTGIVEHKDATDEQRQIQEINTGILIANGADMKRWLAKLTNNNAQGEYYITDIIALAYQEGREIVAVHPQRLSEVEGVNNRLQLSRLERVYQSEQAEKLLLAGVMLRDPARFDLRGTLTHGRDVEIDTNVIIEGNVTLGHRVKIGTGCVIKNSVIGDDCEISPYTVVEDANLAAACTIGPFARLRPGAELLEGAHVGNFVEMKKARLGKGSKAGHLTYLGDAEIGDNVNIGAGTITCNYDGANKFKTIIGDDVFVGSDTQLVAPVTVGKGATIAAGTTVTRNVGENALAISRVPQTQKEGWRRPVKKK
notes: full-length in pET28a, His-tag kept; expressed in E. coli BL21(DE3)
Take B1: the Km turned out to be 400 µM.

These data come from article PMC8666670, “Malonyl-acyl carrier protein decarboxylase activity promotes fatty acid and cell envelope biosynthesis in Proteobacteria” (The Journal of Biological Chemistry, 2021).
